{"source": "patent US20230277625A1", "about": "(SIMCHA IL 18, published 2023)", "key": {"[1]": {"target": "T1, Human IL-18BP (amino acids 31-194), biotinylated (human, UniProt O95998 31-194, biotin on the AviTag (BirA ligase) where used biotinylated)", "T1 construct": "Soluble decoy receptor; also called hIL-18BP; recombinant IL-18BP", "T1 sequence": "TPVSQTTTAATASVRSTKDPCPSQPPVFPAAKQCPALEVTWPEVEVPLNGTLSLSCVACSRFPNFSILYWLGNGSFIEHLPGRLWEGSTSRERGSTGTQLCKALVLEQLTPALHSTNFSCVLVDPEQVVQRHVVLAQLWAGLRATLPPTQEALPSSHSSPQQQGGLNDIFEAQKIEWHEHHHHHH", "test": "on-yeast binding isotherms; KD ratio relative to WT IL-18"}, "[2]": {"target": "T1, Human IL-18BP (amino acids 31-194), …", "test": "on-yeast binding isotherm (flow cytometry); members per FIG. 5A legend", "description": "(§1) Individual colonies of IL-18 yeast were grown overnight at 30° C. in SDCAA liquid media and induced in SGCAA liquid media for 1 day at 20° C. IL-18 display levels on yeast were verified by flow cytometry using an anti-cMyc tag antibody (anti-myc-PE; Cell Signaling Technologies). Receptor staining with biotinylated IL-18Rα (with or without IL-18R β) or biotinylated IL-18BP was performed in PBS supplemented with 0.5% BSA and 2 mM EDTA (PBE) on ice. All analysis was performed on a Sony SA3800 flow cytometer.\n(§2) To additionally characterize the receptor binding activities of the DR-IL-18 variants, the cytokines were expressed recombinantly and surface plasmon resonance for IL-18Rα and IL-18BP was performed (see FIG. 5B for representative traces)."}, "[3]": {"target": "T1, Human IL-18BP (amino acids 31-194), …", "test": "SPR; KD(IL-18BP)/KD(IL-18Rα) normalized to WT IL-18"}, "[4]": {"target": "T1, Human IL-18BP (amino acids 31-194), …", "test": "SPR (Biacore T100), IL-18BP captured via biotin, IL-18 as analyte", "description": "(§3) Experiments were conducted using a Biacore T100 and carried out at 25° C. Biotinylated IL-18Rα or IL-18BP were immobilized onto a Biacore biotin capture chip (Series S CAP sensor chip, GE Healthcare) to yield an Rmax of ˜50 RU (IL-18Rα) or ˜10 RU (IL-18BP). Measurements were made with serial dilutions of the IL-18 variants in HEPES buffered Saline-P+buffer (10 mM HEPES pH 7.4, 150 mM NaCl, 0.005% surfactant P20). The surface was regenerated by three 60-sec injections of regeneration buffer (3/4 (v/v) 8M guanidine hydrochloride with 1/4 (v/v) 1M sodium hydroxide). Experiments were performed in multiple channels simultaneously for increased observations. All data were analyzed with the Biacore T100 evaluation software version 2.0 with a 1:1 Langmuir binding model.\nas §2"}, "[5]": {"target": "T1, Human IL-18BP (amino acids 31-194), …", "test": "SPR, immobilized biotinylated hIL-18BP, representative sensorgram FIG. 5B; representative sensorgram, FIG. 5B; single run, not the average", "description": "(§4) By contrast, very little binding is observed with the same variants and hIL-18BP (right).\nas §3"}, "[6]": {"target": "T2, Human IL-18Rα ectodomain (amino acids 19-329), biotinylated (human, UniProt Q13478 19-329, biotin on the AviTag (BirA ligase))", "T2 construct": "range 19-329; Secreted from insect cells (gp67 signal peptide removed); also called hIL-18Rα; hIL18Rα", "T2 sequence": "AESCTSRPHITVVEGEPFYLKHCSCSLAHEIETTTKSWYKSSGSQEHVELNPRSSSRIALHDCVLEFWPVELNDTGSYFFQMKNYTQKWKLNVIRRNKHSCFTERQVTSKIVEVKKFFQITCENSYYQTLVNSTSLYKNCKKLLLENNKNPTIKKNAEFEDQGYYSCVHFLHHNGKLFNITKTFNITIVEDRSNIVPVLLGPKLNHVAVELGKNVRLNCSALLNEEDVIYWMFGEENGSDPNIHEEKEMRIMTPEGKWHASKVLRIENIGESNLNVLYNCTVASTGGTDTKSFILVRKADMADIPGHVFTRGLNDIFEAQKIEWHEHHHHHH", "test": "SPR (Biacore T100), receptor captured via biotin, IL-18 as analyte", "description": "as §3, §2"}, "[7]": {"target": "T1, Human IL-18BP (amino acids 31-194), …", "test": "on-yeast binding isotherm (flow cytometry), drawn summary table, column IL18BP (KD)", "description": "as §1"}, "[8]": {"target": "T1, Human IL-18BP (amino acids 31-194), …", "test": "on-yeast binding isotherms; KD for IL-18BP over KD for IL-18Rα"}, "[9]": {"target": "T2, Human IL-18Rα ectodomain (amino acids …)", "test": "on-yeast binding isotherm (flow cytometry), drawn summary table, IL18Rα (KD)", "description": "as §1"}, "[10]": {"target": "T1, Human IL-18BP (amino acids 31-194), …", "test": "SPR; KD ratio relative to WT IL-18", "description": "as §3, §2"}, "[11]": {"target": "T2, Human IL-18Rα ectodomain (amino acids …)", "test": "SPR; average of 2 studies"}, "[12]": {"target": "T1, Human IL-18BP (amino acids 31-194), …", "test": "SPR; average of 2 studies"}, "[13]": {"target": "T1, Human IL-18BP (amino acids 31-194), …", "test": "on-yeast binding isotherm (flow cytometry)"}, "[14]": {"target": "T1, Human IL-18BP (amino acids 31-194), …", "test": "SPR, single-cycle injections of 1.5, 4.5, 13.5, 40.5 and 121.5 nM over immobilized biotinylated hIL-18BP; the sheet prints two constants, KD1 and KD2 (KD2 = 15.2 nM is the value in the text)", "description": "as §4, §3"}, "[15]": {"target": "T1, Human IL-18BP (amino acids 31-194), …", "test": "SPR; KD for IL-18BP over KD for IL-18Rα", "description": "as §3, §2"}, "[16]": {"target": "T1, Human IL-18BP (amino acids 31-194), …", "test": "on-yeast binding isotherms; 20 µM used for NBD; yeast-displayed variant, flow cytometry; ratio computed with 20 µM put in for NBD"}, "[17]": {"target": "T1, Human IL-18BP (amino acids 31-194), …", "test": "on-yeast binding isotherms; KD ratio relative to WT IL-18; yeast-displayed variant; ratio normalized to WT, from the 20 µM placeholder"}, "[18]": {"target": "T3, Mouse IL-18Rα ectodomain (amino acids 19-329), biotinylated (mouse, UniProt Q61098 19-329, biotin on the AviTag (BirA ligase))", "T3 construct": "range 19-329; Secreted from Expi293 cells (H7 signal peptide removed); also called mIL-18Rα; mIL18Ra", "T3 sequence": "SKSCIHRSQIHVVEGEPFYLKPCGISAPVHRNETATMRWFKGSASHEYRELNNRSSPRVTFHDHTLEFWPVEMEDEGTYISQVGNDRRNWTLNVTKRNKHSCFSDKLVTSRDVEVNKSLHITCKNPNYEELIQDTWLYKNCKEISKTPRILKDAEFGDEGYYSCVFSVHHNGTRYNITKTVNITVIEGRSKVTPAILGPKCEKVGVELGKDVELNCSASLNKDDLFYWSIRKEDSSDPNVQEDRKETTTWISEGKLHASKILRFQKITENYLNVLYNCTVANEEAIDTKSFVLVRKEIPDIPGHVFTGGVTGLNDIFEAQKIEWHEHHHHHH", "test": "SPR (Biacore T100), receptor captured via biotin, IL-18 as analyte", "description": "as §3"}, "[19]": {"target": "T4, Mouse IL-18BP (amino acids 31-194), biotinylated (mouse, UniProt Q9Z0M9 29-193, biotin on the AviTag (BirA ligase))", "T4 construct": "also called mIL-18BP", "T4 sequence": "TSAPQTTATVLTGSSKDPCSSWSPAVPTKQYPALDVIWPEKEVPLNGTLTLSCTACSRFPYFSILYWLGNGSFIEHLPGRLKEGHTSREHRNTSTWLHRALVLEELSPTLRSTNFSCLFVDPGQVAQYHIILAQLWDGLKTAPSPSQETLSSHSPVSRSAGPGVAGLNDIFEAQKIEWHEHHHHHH", "test": "on-yeast binding isotherms; 10 µM used for NBD; yeast-displayed variant; ratio computed with 10 µM put in for NBD", "description": "as §1"}, "[20]": {"target": "T4, Mouse IL-18BP (amino acids 31-194), …", "test": "SPR; KD for IL-18BP over KD for IL-18Rα; SPR; ratio of two measured KD", "description": "as §3"}, "[21]": {"target": "T4, Mouse IL-18BP (amino acids 31-194), …", "test": "on-yeast binding isotherms; KD ratio relative to WT IL-18; yeast-displayed variant; ratio normalized to WT, from the 10 µM placeholder", "description": "as §1"}, "[22]": {"target": "T4, Mouse IL-18BP (amino acids 31-194), …", "test": "SPR; range of a group, this end tied to A7 by the 9th table; m is a multiple of 1,000,000"}, "[23]": {"target": "T4, Mouse IL-18BP (amino acids 31-194), …", "test": "SPR (Biacore T100), IL-18BP captured via biotin, IL-18 as analyte; SPR, soluble variant", "description": "as §3"}, "[24]": {"target": "T3, Mouse IL-18Rα ectodomain (amino acids …)", "test": "on-yeast binding isotherm (flow cytometry)", "description": "as §1"}, "[25]": {"target": "T4, Mouse IL-18BP (amino acids 31-194), …", "test": "yeast binding isotherms and SPR; members per FIG. 11A legend", "description": "as §1, §3"}, "[26]": {"target": "T4, Mouse IL-18BP (amino acids 31-194), …", "test": "SPR; KD ratio relative to WT IL-18; SPR; ratio normalized to WT", "description": "as §3"}}}
{"binder": "SEQ ID NO: 34 (human DR-IL-18 variant hCS1) (ligand, Engineered variant) YFGKLESKLSVIRNLNDQVLFIDQGNRPLFEDMTDSDCRDNAPRTIFIISTYKDSQPRGKAVTISVKCEKISTLSCENKIISFKEMNPPDNIKDTKSDIIFFQRDVPGHKHKMQFESSSYEGYFLACEKERDLFKLILKKEDELGDRSIMFTVQNED", "values": [{"measurement": "Dissociation Constant Ratio normalized to WT IL-18", "setting": "[1]", "result": 1020}, {"measurement": "EC50", "setting": "[2]", "result": "> 1000", "unit": "nM"}, {"measurement": "IL-18 BP:Rα Dissociation Constant Ratio", "setting": "[3]", "result": 3020}, {"measurement": "Kd", "setting": "[4]", "result": 19.4, "unit": "nM"}, {"measurement": "Kd", "setting": "[5]", "result": 15.2, "unit": "nM"}, {"measurement": "Kd", "setting": "[6]", "result": 8.05, "unit": "nM"}, {"measurement": "Kd", "setting": "[7]", "result": 710, "unit": "nM"}, {"measurement": "KD ratio IL-18BP/IL-18Rα", "setting": "[8]", "result": 300}, {"measurement": "Kd", "setting": "[9]", "result": 146, "unit": "nM"}, {"measurement": "Dissociation Constant Ratio normalized to WT IL-18", "setting": "[10]", "result": 3720}, {"measurement": "Kd", "setting": "[11]", "result": 8, "unit": "nM"}, {"measurement": "Kd", "setting": "[12]", "result": 11.8, "unit": "nM"}, {"measurement": "Kd", "setting": "[13]", "result": 19300, "unit": "nM"}, {"measurement": "KD1 (first of two fitted dissociation constants)", "setting": "[14]", "result": 36.7, "unit": "nM"}, {"measurement": "KD ratio IL-18BP/IL-18Rα", "setting": "[15]", "result": 2.41}]}
{"binder": "SEQ ID NO: 35 (human DR-IL-18 variant hCS2) (ligand, Engineered variant) YFGKLESKLSVIRNLNDQVLFIDQGNRPLFEDMTDSDCRDNAPRTIFIISTYKDKQPRAKAVTISVKCEKISTLSCENKIISFKEMNPPDNIKDTKSDIIFFQRDVPGHKHKMQFESSSYEGYFLACEKERDLFKLILKKEDELGDRSIMFTIQNED", "values": [{"measurement": "KD ratio IL-18BP/IL-18Rα", "setting": "[16]", "result": "> 219"}, {"measurement": "Dissociation Constant Ratio normalized to WT IL-18", "setting": "[17]", "result": "> 741"}, {"measurement": "Kd", "setting": "[6]", "result": 13.1, "unit": "nM"}, {"measurement": "Kd", "setting": "[9]", "result": 92, "unit": "nM"}]}
{"binder": "SEQ ID NO: 70 (murine DR-IL-18 variant mA7) (ligand, Engineered variant) YFGRLHCTTAVIRNINDQVLFVDKRQPVFEDMTDIDQSASEPQTRLIIYAYGDNRVRGKAVTLSVKDSKMSTLSCKNKIISFEEMDPPENIDDIQSDLIFFQKRVPGHNKMEFESSLYEGHFLACQKEDDAFKLILKKKDENGDKSVMFTLTNLHQS", "values": [{"measurement": "Kd", "setting": "[18]", "result": 0.22, "unit": "nM"}, {"measurement": "KD ratio IL-18BP/IL-18Rα", "setting": "[19]", "result": "> 741"}, {"measurement": "KD ratio IL-18BP/IL-18Rα", "setting": "[20]", "result": 63200}, {"measurement": "Dissociation Constant Ratio normalized to WT IL-18", "setting": "[21]", "result": "> 3930"}, {"measurement": "IL-18 BP:Rα Dissociation Constant Ratio", "setting": "[22]", "result": "3.5e+07"}, {"measurement": "Kd", "setting": "[23]", "result": 13900, "unit": "nM"}, {"measurement": "Kd", "setting": "[24]", "result": 13.5, "unit": "nM"}, {"measurement": "Kd", "setting": "[25]", "result": "> 1000", "unit": "nM"}, {"measurement": "Dissociation Constant Ratio normalized to WT IL-18", "setting": "[26]", "result": "3.45e+07"}]}
